Assay results as given in patent US12012615B2, “Method of making induced pluripotent stem cells using p53 inhibitors” (Kyoto University, priority 2008, dated 2024).
Substitutions are numbered along the chain they refer to. In names and notes the source's numbering stands.

Tests used:
[1] = tested on: Fibroblasts (MEF) from a fetal p53 hetero-deficient mouse having the Nanog reporter; test: Establishment of iPS cells (GFP-positive colonies) from MEFs with 4 factors and a p53 inhibitor; format: cell-based; settings: 4 factors; 6 nM in medium from day 6; counted on day 20; compared with cells treated with DMSO
Protocol: The effects of a p53 inhibitor on the efficiency of establishment of iPS cells were examined. The retrovirus used for reprogramming was prepared by introducing a retrovirus expression vector (pMXs-Oct3/4, pMXs-Sox2, pMXs-Klf4, pMXs-cMyc) into Plat-E cells that had been sown to a 6-well culture plate (Falcon) at 0.6×10^6 cells per well on the previous day. The culture broth used was DMEM/10% FCS (DMEM (Nacalai tesque) supplemented with 10% fetal bovine serum), and cultured at 37° C. and 5% CO2. For vector transfer, 4.5 μL of the FuGene6 transfection reagent (Roche) was placed in 100 μL of Opti-MEM I Reduced-Serum Medium (Invitrogen), and this mixture was allowed to stand at room temperature for 5 minutes. Thereafter, 1.5 μg of each expression vector was added, and the mixture was further allowed to stand at room temperature for 15 minutes, and then added to Plat-E culture broth. On day 2, the Plat-E supernatant was exchanged with a fresh supply of the medium; on day 3, the culture supernatant was recovered and filtered through a 0.45 μm sterile filter (Whatman), polybrene (Nacalai) was added to obtain a concentration of 4 μg/mL, and this was used as the viral liquid.
Fibroblasts (MEF) were isolated from a fetal p53 hetero-deficient mouse having the Nanog reporter (13.5 days after fertilization). […] GFP-positive colonies were counted on day 20. […]

p53-null MEF = test: iPS cell generation from p53-null MEF with forced expression of p21; format: cell-based, mouse
HDF = test: iPS cell generation from HDF with p53-regulated genes, with or without the p53 shRNA; format: cell-based, human; settings: four factors and the p53 shRNA; colonies counted day 28
[2] = tested on: Oct4-GFP, p53-heterozygous MEF; test: iPS generation by the three factors co-transduced with wild-type or mutant p53, p53-heterozygous MEFs; format: cell-based, mouse; settings: retroviral co-transduction, counted 28 days after transduction
Text: (§1) FIGS. 13A and 13B show iPS generation from p53 heterozygous or homozygous MEFs by the three factors co-transduced with wild-type or mutant p53. […] After retroviral transduction, 5000 cells were collected and GFP-positive colonies were counted 28 days after the transduction. Data of three independent experiments are shown. […] After retroviral transduction, 5000 live cells were collected and GFP-positive colonies were counted 28 days after the transduction. Data of two independent experiments are shown.
(§2) We used either the Nanog-GFP or Oct3/4-GFP reporter system for sensitive and specific identification of iPS cells (Okita K. et al. Nature 448, 313 (2007)). […] The cells were infected next day (day 0) with retrovirus made from Plat-E. On day 5, cells were reseeded either at one cell per well of 96-plates by a cell sorter (FACS Aria, Beckton Dekinson) or 5000 cells per 100 mm-dish. Puromycin selection ([…]) was initiated on day 13 in the four-factor protocol and on day 19 in the three factor protocol. Numbers of GFP positive colonies were determined on day 21 for the four-factor protocol and on day 28 in the three factor protocol.
(§3) First, we tested the effect of dominant negative mutants of p53 on the generation of iPS cells. […] After sequencing verification, cDNA was transferred to pMXs-gw by Gateway cloning technology (Invitrogen). […]

[3] = tested on: Fibroblasts (MEFs) from a fetal p53 hetero-deficient mouse having a Nanog reporter; test: Establishment of iPS cells from MEFs with 4 or 3 factors and the dominant negative mutant p53P275S; format: cell-based; settings: compared with mutation-free p53 or DsRedExpress
Protocol: The function of endogenous p53 was inhibited using a dominant negative mutant of p53, and its influence on the efficiency of establishment of iPS cells was investigated. The dominant negative mutant used was p53P275S, prepared by causing a point mutation of the proline at the position 275 located in the genome-binding region of p53 to serine (Annemieke de Vries (2002). PNAS 99, 2948-2953).
The retrovirus used for reprogramming was prepared by introducing retrovirus expression vector (pMXs-Oct3/4, pMXs-Sox2, pMXs-Klf4, pMXs-cMyc, pMXs-p53P275S) into Plat-E cells that had been sown to a 6-well culture plate (Falcon) at 0.6×10^6 cells per well on the previous day (for how to prepare pMXs-p53P275S, see Example 6 below). The culture broth used was DMEM/10% FCS (DMEM (Nacalai tesque) supplemented with 10% fetal bovine serum), and cultured at 37° C. and 5% CO2. For vector transfer, 4.5 μL of the FuGene6 transfection reagent (Roche) was placed in 100 μL of Opti-MEM I Reduced-Serum Medium (Invitrogen), and this mixture was allowed to stand at room temperature for 5 minutes. Thereafter, 1.5 μg of each expression vector was added, and the mixture was further allowed to stand at room temperature for 15 minutes, and then added to Plat-E culture broth. […]
GFP-positive colonies were counted on day 21 for the 4 factors, and on day 28 for the 3 factors. […]

Nanog-GFP, p53-null MEFs = test: iPS generation by the three factors co-transduced with wild-type or mutant p53, p53-null MEFs; format: cell-based, mouse; settings: retroviral co-transduction, counted 28 days after transduction
Text: as §1, §2, §3

Question: For `O=[N+]([O-])c1ccc(-c2cn3c4c(sc3n2)CCCC4)cc1` [Pifithrin α, p-Nitro, Cyclic, 2-(4-Nitrophenyl)imidazo[2,1-b]-5,6,7,8-tetrahydrobenzothiazole], which “increase in the number of GFP-positive colonies” value (“increase in the number” below) [1] is on record?
Answer: about 4 times

Question: Which results are given for “p21: cyclin-dependent kinase inhibitor 1A (p21, Cip1), p53 target gene, forcibly expressed by retrovirus”?
Answer: iPS cell generation (p53-null MEF): markedly decreased; counteraction of the effect of the p53 shRNA on iPS cell generation (HDF): effectively counteracted

B1: p53P275S: dominant negative mutant of mouse p53, proline 275 to serine, expressed from retroviral vector pMXs-p53P275S (protein, UniProt P02340 1-390, looked up, variant P275S)
Cellular tumor antigen p53: MTAMEESQSDISLELPLSQETFSGLWKLLPPEDILPSPHCMDDLLLPQDVEEFFEGPSEALRVSGAPAAQDPVTETPGPVAPAPATPWPLSSFVPSQKTYQGNYGFHLGFLQSGTAKSVMCTYSPPLNKLFCQLAKTCPVQLWVSATPPAGSRVRAMAIYKKSQHMTEVVRRCPHHERCSDGDGLAPPQHLIRVEGNLYPEYLEDRQTFRHSVVVPYEPPEAGSEYTTIHYKYMCNSSCMGGMNRRPILTIITLEDSSGNLLGRDSFEVRVCACSGRDRRTEEENFRKKEVLCPELPPGSAKRALPTCTSASPPQKKKPLDGEYFTLKIRGRKRFEMFRELNEALELKDAHATEESGDSRAHSSYLKTKKGQSTSRHKKTMVKKVGPDSD
Question: How did the “number of GFP-positive colonies / efficiency of iPS cell generation” value [2] turn out when B1 was run?
Answer: substantial increase

Question: What about the “increase in the number” value ([3]; 3 factors, counted on day 28) of the same molecule?
Answer: about 3 times

Question: And the “increase in the number” value ([3]; 4 factors, counted on day 21)?
Answer: about 4 times

B2: S58A: transactivation-negative mouse p53 mutant, serine 58 to alanine, retrovirally expressed (protein, UniProt P02340 1-390, looked up, variant S58A)
Cellular tumor antigen p53: B1 Cellular tumor antigen p53 with S58A, S275P
Question: Which “number of GFP-positive colonies” value (Nanog-GFP, p53-null MEFs) does the source give for B2 here?
Answer: weaker effects

B3: D278N: transactivation-negative mouse p53 mutant, aspartic acid 278 to asparagine, retrovirally expressed (protein, UniProt P02340 1-390, looked up, variant D278N)
Cellular tumor antigen p53: B1 Cellular tumor antigen p53 with S275P, D278N
Question: Which “number of GFP-positive colonies” value (Nanog-GFP, p53-null MEFs) does the source give for B3 here?
Answer: weaker effects
